How the values were obtained:
[1] = molecular target: Ndd^JamL-LipPKS1* (Moorea producens | not stated)

JamC(E32T)-Cdd^JamK
combined titer of 7 and 8 in E. coli (maximum amount of product) [1]: 16 mg/L | combined titer of 7 and 8 in E. coli, against unmodified JamC/LipPKS1* [1]: 39 fold

B1: JamC (E32T) (natural protein)
chain: MENLTVETQNLTSLDNGSIEEKNGPTVDEVQTWLISYLSQLLDLEIEEISTSTSFNRYGLDSSASISLTSDFGDWISKEIDPTILYSYPTIEAMAEHFGA
modifications: holo-ACP, acyl chain loaded by JamA; residue not stated
in vitro product formation assay: formation of 7 against wild-type JamC (LipPKS1*): 7 fold

B2: JamC (E32H) (natural protein)
chain: MENLTVETQNLTSLDNGSIEEKNGPTVDEVQHWLISYLSQLLDLEIEEISTSTSFNRYGLDSSASISLTSDFGDWISKEIDPTILYSYPTIEAMAEHFGA
modifications: holo-ACP, acyl chain loaded by JamA; residue not stated
in vitro product formation assay: formation of 7 against wild-type JamC (DEBSM6*): 2 fold

— article PMC9829517
